Data: the supplement of paper PMC9170038

System: MS2 coat protein
Assay: apparent KD of MS2 coat protein; designed switch direction (-1 OFF switch, 1 ON switch): -1; higher = weaker reporter binding
Method in brief: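 Normalised cluster fluorescence was curve-fitted, and each design's median over clusters is its apparent KD. Before this, SNAP-549-labelled MS2 coat protein was titrated from 0.7 or 1.5 nM, doubling to 3 µM, over RNA switches transcribed on Illumina chips by stalled E. coli RNA polymerase. Titrations had no input, 200 uM small-molecule ligand, or an oligonucleotide input, and steps lasted 0.8–1.5 h (lowest) to 10–20 min (highest).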

[1] = input ligand: microRNA oligo, concentration not stated
[2] = Eterna round: R95, input ligand: microRNA oligo, concentration not stated
[3] = Eterna round: R95, input ligand: FMN 200 uM
[4] = Eterna round: R95, input ligand: none

| Sequence | apparent KD of MS2 coat protein (input ligand: FMN 200 uM) [nM] | apparent KD of MS2 coat protein [1] [nM] | apparent KD of MS2 coat protein (input ligand: none) [nM] | apparent KD of MS2 coat protein [2] [nM] | apparent KD of MS2 coat protein [3] [nM] | apparent KD of MS2 coat protein [4] [nM] |
| --- | --- | --- | --- | --- | --- | --- |
| UUUGUAUAUGAAGGAUAUACUUAACAUGAGGAUCACCCAUGUGGUGUUGUGAGUGAGUGAGUUUAGUAGAAGGUCAAGUAUUUU [JMF's solution 50] (Eterna round: R96, puzzle: Exclusion NG 2) | 403 | 298 | 367 |  |  |  |
| CCAUGGGAGCGAGGAUAUAGCCCAUGGGAAGAGCUAGAAGGCGCAGACAUGAGGAUCACCCAUGUGUUCAUGAGGAGGUGGACA (Eterna round: R96, puzzle: Exclusion NG 1) | 95.5 | 47.9 | 73.7 |  |  |  |
| CGUGCGUAUGUGAGGAUAUGCUGGUCCUUGGAUCGGCAGAAGGCACAUGAGGAUCACCCAUGUGGUGUCGUACA [salish99_Bmod_ex4_088] (puzzle: Brourd's mod of Exclusion 4) |  |  |  | 215 |  |  |
| CUUUUAAAUGUGAGGAUAUACUGUUAUUAAAGUUAGUAGAAGGUACAUGAGGAUCACCCAUGUUAAUUACUCUA [JR_BME4_Sub048] (puzzle: Brourd's mod of Exclusion 4) |  |  |  | 12.5 | 15.1 | 12.6 |
| CUUUGGGCAGGAUAUGCUGUUUGUGACAUGAGGAUCACCCAUGUGAUGCAGUUUGGGUGUGCAGAAGGGCCUGAGA [JR_E5_Sub030] (puzzle: Exclusion 5) |  |  |  | 72.6 | 115 | 110 |
| UUUUGGUAAGGAUAUGAAUCGAUCUCGGAAACGAGAUCGAUUCAGAAGGUACAUGAGGAUCACCCAUGUUGAUU [Mod of Brourd 7 - Jieux - Exclusion 4] (Eterna round: R97, puzzle: Exclusion 4) | 119 |  | 26 |  |  |  |
| UGUACUAACACGAUAGUGUUAGUACUAUAAGCUUGUGUUACAUGAGGAUCACCCAUGUCCUCAUAGGCUCGUCUUAU [Mat - Sensor v3 - Turn-off var 2 - D87] (puzzle: Sensor v3, turn-off variant 2) |  |  |  | 47.5 | 646 | 446 |
| CCCUCACAUGAGGAUCACCCAUGUCAGGAUAUCUCACAUCAGCCUUAGGCCGAUGUCUAGAGAAGGGACGUAUC [Latees] (puzzle: Exclusion 1) |  |  |  | 21.3 |  |  |
| ACUAAUUGAGGAUAUACAAGAAUUAACAUGAGGAUCACCCAUGUUCUUAUUUGAAUUAAAGUAGAAGGCAGAAGAA [JR_Ex5_Sub063] (Eterna round: R97, puzzle: Exclusion 5) | 16 |  | 28.9 |  |  |  |
| UUAAUUAAUGUGAGGAUAUCUAGAGCUGCGGCUCUAGAGAAGGCACAUGAGGAUCACCCAUGUCUCAAUUAAUU [BmEx4/2-E3] (Eterna round: R97, puzzle: Brourd's mod of Exclusion 4) | 21.6 |  | 14.7 |  |  |  |
| AUAAUUAAUCGAGGAUAUCAGCACGUGUAGUGCUGAGAAGGCGACAUGAGGAUCACCCAUGUGAUCAAUUAAUAUUAAUAUUAU [ENG1/11-C3] (Eterna round: R96, puzzle: Exclusion NG 1) | 1330 | 565 | 866 |  |  |  |
| GAAAAGUGAGGAUAUGGUAAUGUAAGUAUGUAGUAUGUAAUCCAGAAGGCACAUGAGGAUCACCCAUGUAAAAG [Mat - Exclusion 4 - D102] (puzzle: Exclusion 4) |  |  |  | 24.4 |  |  |
| AAAAGGCUAGGAUAUACCAGUGGGUGUAAGAACUCAAAGUUACAUGAGGAUCACCCAUGUAGAAGGAGUAAAAU [Diriti] (puzzle: Exclusion 2) |  |  |  | 16.2 |  |  |
| ACCUCACAUGAGGAUCACCCAUGUUAGGAUAUCUCGAUGCUCCACGGGCGGUAGCAUCAGAGAAGGAACGUGCU [Vematior] (puzzle: Exclusion 1) |  |  |  | 19 |  |  |
| AAGUAGUGUGUGAGGAUAUUGGUGGAAUGACACAUUAAGAAGGCACAUGAGGAUCACCCAUGUGGGUAAACACG [Brourd's EX4 #22] (Eterna round: R97, puzzle: Brourd's mod of Exclusion 4) | 90 |  | 33.1 |  |  |  |
| AAUAAAGUAGGAUAUCGGCCAGCGAACAUGAGGAUCACCCAUGUGAUGCCGUGCCGACGCCGAGAAGGGCUUAAAA [Usceisma] (puzzle: Exclusion 5) |  |  |  | 12 | 13.5 | 12.1 |
| CAGUACUGAGGAUAUACAUGAGGAUCACCCAUGUAUCCUAGCUAGGAAACUAGCAAAAGUAGAAGGCAGUACUG [Ex3: 819] (Eterna round: R96, puzzle: Exclusion 3) |  | 12.4 |  |  |  |  |
| AGGAAGCAAGGAUAUACGAGGAGAAGGUGUAGAUUUAAAGGACAUGAGGAUCACCCAUGUAGAAGGUGCGAGAA [JR_Exclu2_Sub047] (puzzle: Exclusion 2) |  |  |  | 31.8 | 62.7 | 41.4 |
